From paper PMC5041479
Read-outs that look alike come from different tables or passages of the source.

What was measured:
Pif1p [1] = molecular target: T1, Pif1p (yeast, UniProt P07271 40-859); test: fluorescence anisotropy
T1 sequence: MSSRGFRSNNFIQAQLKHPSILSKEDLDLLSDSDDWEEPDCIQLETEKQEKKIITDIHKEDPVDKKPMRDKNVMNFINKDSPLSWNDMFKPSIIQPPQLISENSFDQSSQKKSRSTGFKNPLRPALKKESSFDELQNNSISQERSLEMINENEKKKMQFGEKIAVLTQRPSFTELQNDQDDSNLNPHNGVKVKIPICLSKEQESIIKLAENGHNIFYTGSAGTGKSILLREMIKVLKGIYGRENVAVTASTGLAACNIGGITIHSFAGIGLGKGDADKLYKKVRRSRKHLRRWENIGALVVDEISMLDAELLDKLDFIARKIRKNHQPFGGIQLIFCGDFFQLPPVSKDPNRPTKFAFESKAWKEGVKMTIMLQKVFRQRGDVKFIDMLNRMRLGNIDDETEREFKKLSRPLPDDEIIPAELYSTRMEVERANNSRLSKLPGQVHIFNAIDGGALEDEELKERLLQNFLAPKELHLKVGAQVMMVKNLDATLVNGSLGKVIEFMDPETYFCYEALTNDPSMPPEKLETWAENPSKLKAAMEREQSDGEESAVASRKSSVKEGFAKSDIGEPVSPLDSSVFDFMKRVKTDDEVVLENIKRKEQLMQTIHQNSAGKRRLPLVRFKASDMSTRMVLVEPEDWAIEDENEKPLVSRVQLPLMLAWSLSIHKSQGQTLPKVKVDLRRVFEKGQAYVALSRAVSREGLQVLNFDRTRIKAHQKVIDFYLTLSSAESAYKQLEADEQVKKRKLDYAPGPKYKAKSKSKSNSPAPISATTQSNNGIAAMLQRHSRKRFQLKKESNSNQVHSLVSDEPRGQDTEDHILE

Pif1p [2] = molecular target: T1, Pif1p; test: fluorescence anisotropy; remark: listed apart in the source

Binder	Kd (Pif1p [1]) [nM]	Kd (Pif1p [2]) [nM]
GTGTGTGTGGTG (ssDNA) [FAM-GR12]	8.7	–
TTTTTTTTTTTT (ssDNA) [FAM-T12]	–	25.2
